Values quoted from earlier work, collected in article PMC4188523.

Assays:
Glu35 = Glu35 (UniProt position 53, CAAKFESNFNT); assay: NMR (according to the title of cited reference 36; not described in this article)
Asp52 = Asp52 (UniProt position 70, TDGSTDYGILQ); assay: as above

## Hen egg white lysozyme (HEWL, lysozyme C) (Gallus gallus)
Glu35
  pKa: ∼6.2
Asp52
  pKa: ∼3.6
